These are literature values, as cited in patent publication US10906951B2, “Modified natural killer cells and natural killer cell lines having increased cytotoxicity” (ONK THERAPEUTICS LIMITED, priority 2015, dated 2021).

The target of this data set is DR4 (Homo sapiens, UniProt O00220). The settings on record: in words; known from WO 2009/066174, MacFarlane 2005; cited from earlier work.

B1: N199R: TRAIL DR4 variant, WO 2009/066174 (protein, UniProt P50591 1-281, looked up, variant N199R)
Tumor necrosis factor ligand …: MAMMEVQGGPSLGQTCVLIVIFTVLLQSLCVAVTYVYFTNELKQMQDKYSKSGIACFLKEDDSYWDPNDEESMNSPCWQVKWQLRQLVRKMILRTSEETISTVQEKQQNISPLVRERGPQRVAAHITGTRGRSNTLSSPNSKNEKALGRKINSWESSRSGHSFLSNLHLRNGELVIHEKGFYYIYSQTYFRFQEEIKERTKNDKQMVQYIYKYTSYPDPILLMKSARNSCWSKDAEYGLYSIYQGGIFELKENDRIFVSVTNEHLIDMDHEASFFGAFLVG
Regarding B1, the “affinity for DR4” value is “increased affinity for DR4”.

B2: G131R/R149I/S159R/S215D: 4C9, a DR4-specific TRAIL variant; DNA sequence SEQ ID NO: 14 (protein, listed as Homo sapiens)
chain: MAMMEVQGGPSLGQTCVLIVIFTVLLQSLCVAVTYVYFTNELKQMQDKYSKSGIACFLKEDDSYWDPNDEESMNSPCWQVKWQLRQLVRKMILRTSEETISTVQEKQQNISPLVRERGPQRVAAHITGTRRRSNTLSSPNSKNEKALGIKINSWESSRRGHSFLSNLHLRNGELVIHEKGFYYIYSQTYFRFQEEIKENTKNDKQMVQYIYKYTDYPDPILLMKSARNSCWSKDAEYGLYSIYQGGIFELKENDRIFVSVTNEHLIDMDHEASFFGAFLVG
On to B2, for which the “affinity for DR4” value was “increased affinity for DR4”.

B3: G131R/N199R/K201H/R149I/S159R/S215D: TRAIL DR4 variant, WO 2009/066174 (protein, UniProt P50591 1-281, looked up, variant G131R N199R K201H R149I S159R S215D)
Tumor necrosis factor ligand …: MAMMEVQGGPSLGQTCVLIVIFTVLLQSLCVAVTYVYFTNELKQMQDKYSKSGIACFLKEDDSYWDPNDEESMNSPCWQVKWQLRQLVRKMILRTSEETISTVQEKQQNISPLVRERGPQRVAAHITGTRRRSNTLSSPNSKNEKALGIKINSWESSRRGHSFLSNLHLRNGELVIHEKGFYYIYSQTYFRFQEEIKERTHNDKQMVQYIYKYTDYPDPILLMKSARNSCWSKDAEYGLYSIYQGGIFELKENDRIFVSVTNEHLIDMDHEASFFGAFLVG
On to B3, for which the “affinity for DR4” value is listed as “increased affinity for DR4”.

B4: N199H/K201R: TRAIL DR4 variant, WO 2009/066174 (protein, UniProt P50591 1-281, looked up, variant N199H K201R)
Tumor necrosis factor ligand …: MAMMEVQGGPSLGQTCVLIVIFTVLLQSLCVAVTYVYFTNELKQMQDKYSKSGIACFLKEDDSYWDPNDEESMNSPCWQVKWQLRQLVRKMILRTSEETISTVQEKQQNISPLVRERGPQRVAAHITGTRGRSNTLSSPNSKNEKALGRKINSWESSRSGHSFLSNLHLRNGELVIHEKGFYYIYSQTYFRFQEEIKEHTRNDKQMVQYIYKYTSYPDPILLMKSARNSCWSKDAEYGLYSIYQGGIFELKENDRIFVSVTNEHLIDMDHEASFFGAFLVG
Regarding B4, the “affinity for DR4” value was “increased affinity for DR4”.

B5: N199R/K201H: TRAIL DR4 variant, WO 2009/066174 (protein, UniProt P50591 1-281, looked up, variant N199R K201H)
Tumor necrosis factor ligand …: MAMMEVQGGPSLGQTCVLIVIFTVLLQSLCVAVTYVYFTNELKQMQDKYSKSGIACFLKEDDSYWDPNDEESMNSPCWQVKWQLRQLVRKMILRTSEETISTVQEKQQNISPLVRERGPQRVAAHITGTRGRSNTLSSPNSKNEKALGRKINSWESSRSGHSFLSNLHLRNGELVIHEKGFYYIYSQTYFRFQEEIKERTHNDKQMVQYIYKYTSYPDPILLMKSARNSCWSKDAEYGLYSIYQGGIFELKENDRIFVSVTNEHLIDMDHEASFFGAFLVG
As for B5, the “affinity for DR4” value is “increased affinity for DR4”.

B6: G131R/N199R/K201H: TRAIL DR4 variant, WO 2009/066174 (protein, UniProt P50591 1-281, looked up, variant G131R N199R K201H)
Tumor necrosis factor ligand …: MAMMEVQGGPSLGQTCVLIVIFTVLLQSLCVAVTYVYFTNELKQMQDKYSKSGIACFLKEDDSYWDPNDEESMNSPCWQVKWQLRQLVRKMILRTSEETISTVQEKQQNISPLVRERGPQRVAAHITGTRRRSNTLSSPNSKNEKALGRKINSWESSRSGHSFLSNLHLRNGELVIHEKGFYYIYSQTYFRFQEEIKERTHNDKQMVQYIYKYTSYPDPILLMKSARNSCWSKDAEYGLYSIYQGGIFELKENDRIFVSVTNEHLIDMDHEASFFGAFLVG
For the molecule B6, the “affinity for DR4” value is listed as “increased affinity for DR4”.
